Assay results reported in article PMC5373594.

Test system: T1, His6-WblI (Streptomyces lividans TK24), ORF:202723bd
T1 sequence: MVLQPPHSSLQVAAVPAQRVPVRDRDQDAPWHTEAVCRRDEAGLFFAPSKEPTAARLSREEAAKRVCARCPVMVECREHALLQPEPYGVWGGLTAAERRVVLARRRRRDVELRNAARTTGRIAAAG
Assay: EMSA
Settings: 10 mM Tris-HCl pH 7.5, 50 mM KCl, 1 mM DTT, 20 µl, room temperature 15 min, 50 pmol probe, 5% native PAGE in 45 mM Tris-HCl pH 8.3, 45 mM boric acid

AGCCAGTGGCGATAAGGTTCCGTCCGGTCCGGGGCCGTCCTCGGGCAGTAACGCCGACGGCGGGGCCGTGGCCCTGTCCGGCTCGTCGGCTTCAACGGAACTCATGGCGTCCCCCGGGTCCTCGACTATTGGTCCACGAACGACCACCGTTCTACAATGGAACGGTGGTCGCGTCAAGAAACGGTGGCCCGTTCATGCCATACGATGAGGAGCACGTGTCGCTTATCGCCACTGGCT (double strand) [actII-1/actII-2 intergenic region]
binding: binds
